Assay results reported in publication PMC6709672 (Nature, 2019).
Read-outs that look alike come from different tables or passages of the source.

How the values were obtained:
[1] = target: T1, mouse Smoothened (SMO) residues 64-566, crystallization construct (Mus musculus, UniProt P56726); test: SPR
[2] = target: T1, mouse Smoothened (SMO) residues 64-566, …; test: SPR; remark: listed apart in the source

T1 sequence (P56726 64-566): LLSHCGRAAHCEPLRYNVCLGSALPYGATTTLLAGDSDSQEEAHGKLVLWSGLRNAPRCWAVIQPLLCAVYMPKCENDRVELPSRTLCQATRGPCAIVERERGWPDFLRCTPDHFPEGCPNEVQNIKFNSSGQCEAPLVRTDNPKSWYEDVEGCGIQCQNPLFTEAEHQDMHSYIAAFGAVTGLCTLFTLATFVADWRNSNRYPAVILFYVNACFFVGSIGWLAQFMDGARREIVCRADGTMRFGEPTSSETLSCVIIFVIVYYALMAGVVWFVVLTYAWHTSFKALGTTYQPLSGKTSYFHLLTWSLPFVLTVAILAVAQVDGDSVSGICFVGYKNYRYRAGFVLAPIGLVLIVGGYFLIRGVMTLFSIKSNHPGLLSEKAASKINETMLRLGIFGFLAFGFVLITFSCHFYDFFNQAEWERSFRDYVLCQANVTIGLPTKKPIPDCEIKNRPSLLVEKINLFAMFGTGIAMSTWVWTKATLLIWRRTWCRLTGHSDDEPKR

B1: NbSmo8 with a C-terminal hexahistidine tag (VHH)
VHH: QVQLQESGGGLVQAGGSLRLSCAASGYIFSSYAMGWYRQAPGKEREFVATIGWGTITYYADSVKGRFTISRDNAKNTVYLQMNSLKPEDTAVYYCAAQDLLYYSFPGDHAYWGQGTQVTVSS
B1 gave a Kd [1] of 168 nM and a Kd [2] of 117 nM.
